T1: recombinant cynomolgus monkey PD-1 expressed with a C-terminal myc-myc-hexahistidine tag (cynomolgus monkey (Macaca fascicularis))
T1 construct: monomeric; also called MfPD-1-MMH
T1 chain: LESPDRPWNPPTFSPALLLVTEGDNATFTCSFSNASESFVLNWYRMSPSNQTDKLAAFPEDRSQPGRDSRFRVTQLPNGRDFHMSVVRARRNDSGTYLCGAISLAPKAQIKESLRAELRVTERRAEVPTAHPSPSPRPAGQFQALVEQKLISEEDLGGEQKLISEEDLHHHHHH


Columns and labels:
[1] = biological target: T2, human PD-1 dimer (human PD-1-mFc or human PD-1-hFc) (human, UniProt Q15116 25-170); assay: SPR, mAb captured, 25C;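 note: surface plasmon resonance on Biacore, PD-1 flowed over captured anti-PD-1 antibodies, rate constants from a 1:1 binding model fit, KD taken as kd/ka and t½ as ln2/(60·kd)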
T2 construct: also called hPD-1-mFc; hPD1-hFc
T2 sequence (Q15116 25-170 C93S): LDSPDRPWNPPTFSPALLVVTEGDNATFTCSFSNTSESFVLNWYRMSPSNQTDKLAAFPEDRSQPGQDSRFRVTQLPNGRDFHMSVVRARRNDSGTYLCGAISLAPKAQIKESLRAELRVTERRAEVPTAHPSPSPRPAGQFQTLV

[2] = biological target: T1, recombinant cynomolgus monkey PD-1 …; assay: SPR, mAb captured, 25C;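 note: rates from fitting Biacore data for PD-1 binding to anti-PD-1 antibodies with a 1:1 model, KD computed as koff/kon and t½ as ln2/(60·koff)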
[3] = biological target: T1, recombinant cynomolgus monkey PD-1 …; assay: SPR, mAb captured, 37C
[4] = biological target: T2, human PD-1 dimer (human PD-1-mFc or …); assay: SPR, mAb captured, 37C
[5] = biological target: T3, recombinant human PD-1 expressed with a C-terminal myc-myc-hexahistidine tag (human); assay: SPR, mAb captured, 37C;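 note: rate constants from fitting sensorgrams to a 1:1 binding model, KD derived as kd divided by ka and half-life as ln2/(60·kd)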
T3 construct: monomeric; also called hPD-1-MMH; human PD-1-MMH

Kd [1] [nM] | koff [1] [s⁻¹] | kon [1] [M⁻¹ s⁻¹] | t½ [1] [min] | Kd [2] [nM] | koff [2] [s⁻¹] | kon [2] [M⁻¹ s⁻¹] | t½ [2] [min] | Kd [3] [nM] | koff [3] [s⁻¹] | kon [3] [M⁻¹ s⁻¹] | t½ [3] [min] | Kd [4] [nM] | koff [4] [s⁻¹] | kon [4] [M⁻¹ s⁻¹] | t½ [4] [min] | Kd [5] [nM] | koff [5] [s⁻¹] | kon [5] [M⁻¹ s⁻¹] | t½ [5] [min] | Binder
0.0655 | 2.29e-05 | 350000 | 505 | 4.5 | 0.000393 | 87200 | 29 | 7 | 0.000993 | 142000 | 12 | 0.028 | 1.4e-05 | 490000 | 825 | 3.79 | 0.000656 | 173000 | 18 | H2aM7798N (antibody, mouse IgG2a, V domains shown, Human variable regions, mouse IgG2a Fc; also called H2M7798N) VH: EVQLLESGGVLVQPGGSLRLSCAASGFTFSNFGMTWVRQAPGKGLEWVSGISGGGRDTYFADSVKGRFTISRDNSKNTLYLQMNSLKGEDTAVYYCVKWGNIYFDYWGQGTLVTVSS VL: DIQMTQSPSSLSASVGDSITITCRASLSINTFLNWYQQKPGKAPNLLIYAASSLHGGVPSRFSGSGSGTDFTLTIRTLQPEDFATYYCQQSSNTPFTFGPGTVVDFR
2.49 | 0.000101 | 40500 | 114 | 34.4 | 0.000553 | 16100 | 21 | 50.5 | 0.00191 | 37900 | 6 | 3.59 | 0.000179 | 49800 | 65 | 53.5 | 0.00224 | 41800 | 5.2 | H2aM7791N (antibody, mouse IgG2a, V domains shown, Human variable regions, mouse IgG2a Fc; also called H2M7791N) VH: QMQLQQWGAGLLKPSETLSLTCVVYGGSLNGYYWSWIRQSPGKGLEWIGEIDHSGSTNYNPSLKNRVTMSVDTSKIQFSLKLTSVTVADTAVYYCAREGLLPFDYWGQGTLVTVSS VL: EIVLTQSPGTLSLSPGERVTLSCRASQSVYSNYLAWYQQNPGQAPRLLIYAASNRATGIPDRFSGSGSGTDFTLTISRLEPEDFAVYYCHQYATSPWTFGQGTKVEIK
1.97 |  |  | 134 | 42.9 |  |  |  | 356 |  |  | 1.5 | 2.71 |  |  | 59 | 453 |  |  | 2.1 | H4H9019P (antibody, human IgG4, V domains shown, Fully human; H4H prefix (human IgG4 Fc)) VH: EVQLVESGGGVVRPGGSLRLSCAASGFTFDDYGMSWVRQVPGKGLEWVSGISWNDGKTVYAESVKGRFIISRDNAKNSLYLEMNSLRAEDTALYYCARDWQYLIERYFDYWGQGTLVTVSS VL: not shown
0.513 | 0.000103 | 201000 | 112 | 4.64 | 0.000434 | 93600 | 27 | 14 | 0.00429 | 306000 | 2.7 | 1.75 | 0.000554 | 316000 | 21 | 14.3 | 0.00426 | 298000 | 2.7 | H4xH9035P (antibody, V domains shown, Human IgG4 Fc with 2 or more amino acid changes (H4xH); also called H4xH9035P2) VH: EVQLVESGGRVVRPGGSLRLSCAASGFTFDDYGMSWVRQLPGKGLEWVAGISWNDGKTVYAESVKGRFIISRDNAKNSLHLEMNSLRAEDTALYYCARDWQYLIDRYFDFWGQGTLVTVSS VL: not shown
0.36 | 8.55e-05 | 238000 | 135 | 224 | 0.013 | 57800 | 0.9 | 530 | 0.0467 | 88000 | 0.2 | 0.411 | 0.000181 | 441000 | 64 | 536 | 0.0425 | 79400 | 0.3 | H1M7799N (antibody, mouse IgG1, V domains shown, Human variable regions, mouse IgG1 Fc) VH: EVQLVESGGGLVQPGGSLRLSCAASGFTVSNNYMSWVRQAPGKGLEWVSVIYSGGFTYYTDSVKGRFTISRHNSKNTLYLQMNSLRAEDTAVYYCARYYYDTSDYWTFFDYWGQGTLVTVSS VL: EIVMTQSPATLSVSPGERATLSCRASQSVSSNLAWYQQKPGQAPRLLIYGASTRATGIPARFSGSGSGTEFTLTISSLQSGDFAVYYCQQYNNWPLTFGGGTKVEIN
0.509 | 7.72e-05 | 152000 | 150 | 176 | 0.0104 | 58900 | 1.1 | 527 | 0.0443 | 84000 | 0.3 | 0.45 | 0.000181 | 400000 | 64 | 510 | 0.0399 | 78300 | 0.3 | H1M7800N (antibody, mouse IgG1, V domains shown, Human variable regions, mouse IgG1 Fc) VH: EVQLVESGGGLVQPGGSLRLSCAASGFTVSNNYMSWVRQAPGKGLEWVSVIYSGGFTYYTDSVKGRFTISRHNSKNTLYLQMNSLRAEDTAVYYCARYYYDTSDYWTFFDYWGQGTLVTVSS VL: EIVMTQSPATLSVSPGERATLSCRASQSVSSNLAWYQQKPGQAPRLLIYGASTRATGIPARFSGSGSGTEFTLTISSLQSGDFAVYYCQQYNNWPLTFGGGTKVEIN
0.593 | 0.000106 | 179000 | 109 | 166 | 0.00599 | 36000 | 1.9 | 302 | 0.0201 | 66600 | 0.6 | 0.452 | 0.000211 | 468000 | 55 | 66.1 | 0.00792 | 120000 | 1.5 | H2aM7794N (antibody, V domains shown, Human variable regions, mouse IgG2a Fc; also called H2M7794N) VH: QLQLQESGPDLVKPSDTLSLTCTVSDDSISSTTYYWAWIRQPPGKGLEWIGSMSYNGNNYYNPSLKSRVAISAGTSQKQFSLKLTSVTAADTAVYHCARHLGYNGNWYPFDFWGQGILVTVSS VL: not shown
0.315 | 2.82e-05 | 89400 | 410 | 76.6 | 0.000662 | 8630 | 17 | 174 | 0.00328 | 18800 | 3.5 | 0.163 | 2.13e-05 | 131000 | 542 | 51.9 | 0.00149 | 28800 | 7.7 | H2aM7788N (antibody, mouse IgG2a, V domains shown, Human variable regions, mouse IgG2a Fc; also called H2M7788N) VH: EVQLVESGGGLVQPGGSLRLSCGASGFTFRNYDMHWVRQITGKGLEWVSAIGSAGDTYYPDSVKGRFTISRENAKNSLYLQMNSLRVGDTAVYYCTRDIHCSSTRCYGMDVWGQGTTVTVSS VL: not shown
0.701 | 0.000151 | 215000 | 77 | 28 | 0.00269 | 96100 | 4.3 | 87.3 | 0.0247 | 283000 | 0.5 | 2.09 | 0.00063 | 302000 | 18 | 40.2 | 0.0112 | 279000 | 1 | H4xH9034P (antibody, V domains shown, Human IgG4 Fc with 2 or more amino acid changes as disclosed in US20100331527 (H4xH); also called H4xH9034P2) VH: EVQLVESGGGVVRPGGSLRLSCTASGFTFDDYGMSWVRQAPGKGLEWISGIGWTGGRSSYADSVRGRFTISRDNAKNSLYLQMNSLGAEDTALYYCARDRQWLVQWYFDYWGQGTLVTVSS VL: not shown
0.227 | 3.14e-05 | 138000 | 368 | 20.1 | 0.000889 | 44400 | 13 | 60.2 | 0.00389 | 64700 | 3 | 0.371 | 6.13e-05 | 165000 | 188 | 67.8 | 0.00458 | 67500 | 2.5 | H2aM7795N (antibody, mouse IgG2a, V domains shown, Human variable regions, mouse IgG2a Fc; also called H2M7795N) VH: EVQVVESGGGLVEPGRSLRLSCKASGFTFDDYAMHWVRQTPGKALEWVSGINWSGNNIGYADSVKGRFTISKDDAKNSLYLQMNSLRPEDTALYYCTKDISITGTLDAFDVWGQGTMVTVSS VL: DIQMTQSPISVSASVGDRVTITCRASQGISNWLAWYQQKPGIAPKLLIYSASSLQSGVPSRFRGSGSGTDFTLTIGSLQPEDFATYYCQQAHSFPLTFGGGTKVEIK
1.1 | 4.31e-05 | 39100 | 268 | 7.89 | 0.000123 | 15500 | 94 | 8.5 | 0.000408 | 47900 | 28 | ≤ 0.0917 | ≤ 1e-05 | 109000 | ≥ 1160 | 6.52 | 0.000295 | 45300 | 39 | H1M7789N (antibody, mouse IgG1, V domains shown, Human variable regions, mouse IgG1 Fc) VH: EVQLLESGGGLVQPGGSLRLSCSASGFTFSSYTMNWVRQAPGKGLEWVSGISDTGGNTYYTDSVKGRFTVSRDNSKNTLSLQMNSLRAEDTAVYYCAKDQGGSYPYYFHYWGQGSLVTVSS VL: DIQMTQSPSSLSASVGDRVTITCRASQSISSYLIWYQQKPGTAPKFLIYAASSLQSGVPSRFSGCGSGTDFTLTISSLQPEDFATYYCQQSYSTPPITFGQGTRLEIK
